{"source": "paper PMC3940072", "about": "(Journal of molecular biology, 2013)", "binders": {"B1": {"name": "KaiC-Δ489 (C-terminally truncated form of S. elongatus KaiC) (domain or fragment, Synechococcus elongatus, UniProt Q79PF4 1-489, looked up)", "chain": "MTSAEMTSPNNNSEHQAIAKMRTMIEGFDDISHGGLPIGRSTLVSGTSGTGKTLFSIQFLYNGIIEFDEPGVFVTFEETPQDIIKNARSFGWDLAKLVDEGKLFILDASPDPEGQEVVGGFDLSALIERINYAIQKYRARRVSIDSVTSVFQQYDASSVVRRELFRLVARLKQIGATTVMTTERIEEYGPIARYGVEEFVSDNVVILRNVLEGERRRRTLEILKLRGTSHMKGEYPFTITDHGINIFPLGAMRLTQRSSNVRVSSGVVRLDEMCGGGFFKDSIILATGATGTGKTLLVSRFVENACANKERAILFAYEESRAQLLRNAYSWGMDFEEMERQNLLKIVCAYPESAGLEDHLQIIKSEINDFKPARIAIDSLSALARGVSNNAFRQFVIGVTGYAKQEEITGLFTNTSDQFMGAHSITDSHISTITDTIILLQYVEIRGEMSRAINVFKMRGSWHDKAIREFMISDKGPDIKDSFRNFERI", "modifications": "persistently phosphorylated (hyper-phosphorylated); sites not determined for this sample"}, "B2": {"name": "wild-type Synechococcus elongatus KaiB (natural protein, UniProt Q79PF5 1-102, looked up)", "chain": "MSPRKTYILKLYVAGNTPNSVRALKTLKNILEVEFQGVYALKVIDVLKNPQLAEEDKILATPTLAKVLPLPVRRIIGDLSDREKVLIGLDLLYGELQDSDDF"}}, "key": {"[1]": {"molecular_target": "the molecule itself", "assay": "cryo-EM structure"}, "[2]": {"molecular_target": "T1, KaiC-R468C (Synechococcus elongatus, UniProt Q79PF4 1-519, R468C)", "T1 sequence": "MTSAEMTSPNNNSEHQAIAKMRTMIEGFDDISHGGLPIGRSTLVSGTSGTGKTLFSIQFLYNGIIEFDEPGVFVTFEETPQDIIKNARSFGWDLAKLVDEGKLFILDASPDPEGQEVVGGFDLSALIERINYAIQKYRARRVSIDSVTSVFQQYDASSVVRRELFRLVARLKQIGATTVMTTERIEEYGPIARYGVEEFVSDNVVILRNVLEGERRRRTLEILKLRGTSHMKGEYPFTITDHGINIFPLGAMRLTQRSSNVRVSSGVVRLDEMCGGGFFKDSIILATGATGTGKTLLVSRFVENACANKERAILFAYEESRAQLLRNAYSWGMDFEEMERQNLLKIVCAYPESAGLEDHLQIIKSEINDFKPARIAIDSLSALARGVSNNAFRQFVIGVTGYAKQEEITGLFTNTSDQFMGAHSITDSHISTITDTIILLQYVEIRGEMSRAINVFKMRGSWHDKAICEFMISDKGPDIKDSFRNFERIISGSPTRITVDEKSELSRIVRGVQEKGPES", "assay": "native gel or EMSA"}}}
{"binder": "B1", "values": [{"measurement": "stoichiometry N", "setting": "[1]", "value": 6}]}
{"binder": "B2", "values": [{"measurement": "binding result", "setting": "[2]", "value": "binds"}]}
